Test system: E. coli BL21 (DE3)+kan^R
Type: cell-based, Escherichia coli
Details: OD600 growth curve, 37° C., 96-well plates, duplicates averaged
Experimental: Growth was determined by measurement of the optical density at 600 nm (OD600) for 18 hours in 96-well plates at 37° C. The profile of the OD600 curves corresponds to the bacterial growth. […] Each sample was prepared in duplicate and the results averaged.
Antimicrobial activity was investigated in a 96-well plate by incubating E. coli BL21 (DE3)+kan^R bacteria either with microcin S alone or with microcin S and an antibiotic at 37° C. for 18 h.
To investigate whether microcin S in combination with antibiotics can likewise achieve synergistic effects on sensitive bacteria, growth profiles of the microcin S-sensitive indicator strain Escherichia coli BL21 (DE3) provided with a kanamycin resistance gene are recorded photometrically in a microtitre plate of 96-well format. […] After loading with the individual samples, the microtitre plate is incubated directly in a photometer (Epoch2 microplate reader from Biotek, USA) at 37° C. and 200 rpm (double-orbital, ∞) for 15 h. The optical density at 600 nm wavelength (OD600) is measured simultaneously for all wells at regular intervals. The graphic evaluation of the recorded measurement points is done subsequently with the aid of Microsoft Excel (Microsoft Corporation, USA). […]

B1: Microcin S: Antimicrobial polypeptide of E. coli G3/10 (SEQ ID NO: 7), prepared in a cell-free E. coli based in vitro expression system (protein, listed as Escherichia coli)
chain: NANSNYEGGGSRSRNTGARNSLGRNAPTHIYSDPSTVKCANAVFSGMVGGAIKGGPVGMTRGTIGGAVIGQCLSGGGNGNGGGNRAGSSNCSGSNVGGTCSR
Time of incubation after which the antibacterial effect is observed (collapse of bacterial growth): 5 h
